This data set concerns the molecule itself. The experiment in a line: negative-stain EM with 2D class averaging; purified NompC-Δ12; raw micrographs and 2D class averages.

The stoichiometry N is the number of molecules, sites or subunits per partner or assembly.

B1: NompC-Δ12 (complex, Drosophila, UniProt E0A9E1 1-1732, looked up)
chain: MSQPRGGRGGGRGGGVGRKTPSSLTGPPDESATPSERATPASKADSDPKDDSSSNGDKKDMDLFPAPKPPSAGASIRDTANKVLGLAMKSEWTPIEAELKKLEKYVANVGEDGNHIPLAGVHDMNTGETPLHMACRACHPDIVRHLIETVKEKHGPDKATTYINSVNEDGATALHYTCQITKEEVKIPESDKQIVRMLLENGADVTLQTKTALETAFHYCAVAGNNDVLMEMISHMNPTDIQKAMNRQSSVGWTPLLIACHRGHMELVNNLLANHARVDVFDTEGRSALHLAAERGYLHVCDALLTNKAFINSKSRVGRTALHLAAMNGFTHLVKFLIKDHNAVIDILTLRKQTPLHLAAASGQMEVCQLLLELGANIDATDDLGQKPIHVAAQNNYSEVAKLFLQQHPSLVNATSKDGNTCAHIAAMQGSVKVIEELMKFDRSGVISARNKLTDATPLQLAAEGGHADVVKALVRAGASCTEENKAGFTAVHLAAQNGHGQVLDVLKSTNSLRINSKKLGLTPLHVAAYYGQADTVRELLTSVPATVKSETPTGQSLFGDLGTESGMTPLHLAAFSGNENVVRLLLNSAGVQVDAATIENGYNPLHLACFGGHMSVVGLLLSRSAELLQSQDRNGRTGLHIAAMHGHIQMVEILLGQGAEINATDRNGWTPLHCAAKAGHLEVVKLLCEAGASPKSETNYGCAAIWFAASEGHNEVLRYLMNKEHDTYGLMEDKRFVYNLMVVSKNHNNKPIQEFVLVSPAPVDTAAKLSNIYIVLSTKEKERAKDLVAAGKQCEAMATELLALAAGSDSAGKILQATDKRNVEFLDVLIENEQKEVIAHTVVQRYLQELWHGSLTWASWKILLLLVAFIVCPPVWIGFTFPMGHKFNKVPIIKFMSYLTSHIYLMIHLSIVGITPIYPVLRLSLVPYWYEVGLLIWLSGLLLFELTNPSDKSGLGSIKVLVLLLGMAGVGVHVSAFLFVSKEYWPTLVYCRNQCFALAFLLACVQILDFLSFHHLFGPWAIIIGDLLKDLARFLAVLAIFVFGFSMHIVALNQSFANFSPEDLRSFEKKNRNRGYFSDVRMHPINSFELLFFAVFGQTTTEQTQVDKIKNVATPTQPYWVEYLFKIVFGIYMLVSVVVLINLLIAMMSDTYQRIQAQSDIEWKFGLSKLIRNMHRTTTAPSPLNLVTTWFMWIVEKVKARMKKKKRPSLVQMMGIRQASPRTKAGAKWLSKIKKDSVALSQVHLSPLGSQASFSQANQNRIENVADWEAIAKKYRALVGDEEGGSLKDSDAESGSQEGSGGQQPPAQVGRRAIKATLADTTK
notes: NompC (no mechanoreceptor potential C), Drosophila, NP_001245891.1, lacking the N-terminal 12 ankyrin repeats (amino acids 126 to 533); Full-length NompC with an internal deletion of residues 126-533; also called truncated NompC-Δ12; NompC complex with the N-terminal 12 ARs removed; not shown: SpyTag, N-terminal, kept; enhanced green fluorescent protein (after a 3C cleavage site), C-terminal, …
Regarding B1, the “stoichiometry N” value worked out at 4.
